Assay results: article PMC12548662

Target: Recombinant human α-centractin with an N-terminal His6 tag (human) (UniProt P61163)
Sequence of UniProt P61163 (P61163 whole entry): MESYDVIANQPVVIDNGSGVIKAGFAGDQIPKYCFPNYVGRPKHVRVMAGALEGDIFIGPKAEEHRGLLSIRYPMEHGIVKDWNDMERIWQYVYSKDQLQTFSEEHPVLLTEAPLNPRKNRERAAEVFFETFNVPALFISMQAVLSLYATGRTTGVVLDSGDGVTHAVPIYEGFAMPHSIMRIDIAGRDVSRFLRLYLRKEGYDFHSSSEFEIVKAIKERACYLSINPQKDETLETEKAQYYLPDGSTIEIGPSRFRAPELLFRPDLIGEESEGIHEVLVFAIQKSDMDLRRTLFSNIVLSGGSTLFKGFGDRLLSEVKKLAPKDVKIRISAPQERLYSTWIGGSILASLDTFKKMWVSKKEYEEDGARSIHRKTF

KM of SETD3 for α-centractin (0.2–5 µM), radiochemical methyltransferase assay, 5 min at 37 °C with 1 µM [1H+3H]SAM: 3.83 µM
B1: Recombinant His6-tagged human SETD3 (wild-type) (enzyme)
chain: MGKKSRVKTQKSGTGATATVSPKEILNLTSELLQKCSSPAPGPGKEWEEYVQIRTLVEKIRKKQKGLSVTFDGKREDYFPDLMKWASENGASVEGFEMVNFKEEGFGLRATRDIKAEELFLWVPRKLLMTVESAKNSVLGPLYSQDRILQAMGNIALAFHLLCERASPNSFWQPYIQTLPSEYDTPLYFEEDEVRYLQSTQAIHDVFSQYKNTARQYAYFYKVIQTHPHANKLPLKDSFTYEDYRWAVSSVMTRQNQIPTEDGSRVTLALIPLWDMCNHTNGLITTGYNLEDDRCECVALQDFRAGEQIYIFYGTRSNAEFVIHSGFFFDNNSHDRVKIKLGVSKSDRLYAMKAEVLARAGIPTSSVFALHFTEPPISAQLLAFLRVFCMTEEELKEHLLGDSAIDRIFTLGNSEFPVSWDNEVKLWTFLEDRASLLLKTYKTTIEEDKSVLKNHDLSVRAKMAIKLRLGEKEILEKAVKSAAVNREYYRQQMEEKAPLPKYEESNLGLLESSVGDSRLPLVLRNLEEEAGVQDALNIREAISKAKATENGLVNGENSIPNGTRSENESLNQESKRAVEDAKGSSSDSTAGVKE
